Experimental data published in the supplement of paper PMC12667976.
± gives the standard error.

B1: library; numbered along this chain (parent)
chain: MATDAALRRLLRLHRTEIAVAVDSAFPLLHALADHDVVPEDKFQETLHLKEKEGCPQAFHALLSWLLTQDSTAILDFWRVLFKDYNLERYGRLQPILDSFPKDVDLSQPRKGRKPPAVPKALVPPPRLPTKRKASEEARAAAPAALTPRGTASPGSQLKAKPPKKPESSAEQQRLPLGNGIQTMSASVQRAVAMSSGDVPGARGAVEGILIQQVFESGGSKKCIQVGGEFYTPSKFEDSGSGKNKARSSSGPKPLVRAKGAQGAAPGGGEARLGQQGSVPAPLALPSDPQLHQKNEDECAVCRDGGELICCDGCPRAFHLACLSPPLREIPSGTWRCSSCLQATVQEVQPRAEEPRPQEPPVETPLPPGLRSAGEEVRGPPGEPLAGMDTTLVYKHLPAPPSAAPLPGLDSSALHPLLCVGPEGQQNLAPGARCGVCGDGTDVLRCTHCAAAFHWRCHFPAGTSRPGTGLRCRSCSGDVTPAPVEGVLAPSPARLAPGPAKDDTASHEPALHRDDLESLLSEHTFDGILQWAIQSMARPAAPFPS

Variants of: B1
Assay: AIRE transcriptional activation functional score (insulin promoter-GFP; nonsense median 0, synonymous median 1) (normalised score); higher = higher AIRE activity (more reporter activation)
Details: with insulin promoter-GFP reporter in HEK293
Summary of the method: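 Functional scores come from comparing select with non-select enrichment of each variant and subtracting wild type. Codon-optimized AIRE NNN-codon libraries across three regions were integrated via Bxb1 recombinase into HEK293 landing-pad cells with an insulin core promoter-GFP reporter, and integrants sorted at day 7 were expanded 7 days before top 10% GFP and unselected populations were tile-sequenced. Variants needed 10 counts per million in non-select, and values were rescaled to nonsense median 0 and synonymous median 1 before averaging over biological replicates.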

AIRE transcriptional activation functional score: each site, then its substitutions
P542: M 1.3 ± 0.025, V 1.16 ± 0.16, K 0.249 ± 0.14, S 1.07 ± 0.28, H 0.651 ± 0.037, Y 1.25 ± 0.043, D 0.633 ± 0.23, W 0.476 ± 0.038, I 1.09 ± 0.22, A 1.19 ± 0.2, G 0.957 ± 0.13, L 1.07 ± 0.084, F 0.923 ± 0.081, E 0.426 ± 0.24, R 0.209 ± 0.13, T 0.963 ± 0.13, C 1.05 ± 0.21, N -0.142 ± 0.32, Q 0.942 ± 0.21
P539: N 0.745 ± 0.36, S 0.85 ± 0.2, V 0.434 ± 0.12, W 0.719 ± 0.068, T 0.931 ± 0.2, R 0.158 ± 0.18, Y -0.367 ± 0.19, Q 0.339 ± 0.087, M 0.297 ± 0.044
F543: S 0.493 ± 0.26, W 1.23 ± 0.085, A 0.367 ± 0.22, P 1.13 ± 0.06, M 0.745 ± 0.12, Q 0.317 ± 0.17, I 0.17 ± 0.19, C 0.138 ± 0.091, D 0.845 ± 0.096, L 0.729 ± 0.15, Y 0.833 ± 0.25, R 0.296 ± 0.13, G 0.595 ± 0.26, V 0.18 ± 0.21, E 0.561 ± 0.2, N 0.535 ± 0.17, T 0.669 ± 0.16
A540: C 1.37 ± 0.19, F 0.417 ± 0.032, R 0.119 ± 0.26, D 0.625 ± 0.45, K 0.195 ± 0.23, N 1.02 ± 0.19, S 0.988 ± 0.28, G 1 ± 0.31, V 1.11 ± 0.14, T 0.867 ± 0.26, I 0.978 ± 0.18, W 0.41 ± 0.054, M 0.694 ± 0.066, Q 0.739 ± 0.11, L 0.964 ± 0.28, Y 0.912 ± 0.12, H 0.844 ± 0.43, P 1.07 ± 0.37, E 0.617 ± 0.17
S545: P 0.59 ± 0.21, C 1.3 ± 0.047, T 0.998 ± 0.12, F 1.04 ± 0.1, A -0.21 ± 0.1, Y 1.35 ± 0.053
A541: D 0.469 ± 0.25, W 0.259 ± 0.02, F 0.75 ± 0.26, T 0.842 ± 0.18, H 0.976 ± 0.41, K 0.252 ± 0.083, P 0.791 ± 0.2, R 0.198 ± 0.16, E 0.858 ± 0.22, S 0.717 ± 0.35, V 1.1 ± 0.19, L 0.957 ± 0.3, G 0.847 ± 0.25, C 1.43 ± 0.09, Y 0.977 ± 0.18, N 0.974 ± 0.061, M 0.557 ± 0.35, Q 1.05 ± 0.076, I 1.3 ± 0.064
P544: A 1.28 ± 0.25, F 0.586 ± 0.11, T 0.985 ± 0.49, Q 0.746 ± 0.033, L 1.19 ± 0.1, I 1.16 ± 0.096, G 1.38 ± 0.087, R 0.52 ± 0.21, Y 1.65 ± 0.029, N -0.709 ± 0.074, C 0.924 ± 0.031, S 0.867 ± 0.39, H 0.559 ± 0.22, V 0.842 ± 0.046
